In the RNAGym collection of RNA variant scans (doi:10.7554/elife.80360):

B1: Hammerhead Ribozyme (parent)
chain: ACCGGAUGUGCUUUCCGGUCUGAUGAGUCCGUGAGGACGAAACAG

Variants of: B1
Test: self-cleavage, relative activity (ratio to wild type); higher = more cleavage; co-transcriptional

Variant	self-cleavage
U24A A34C	0.88
U24C G27C	0.559
U24C G27U	0.335
U24C G27A	0.53
A23U A44U	0.336
A23U A44C	0.438
A23U A44G	0.706
U24C C43G	0.36
U24C C43U	0.404
U24C C43A	0.271
G25A A26C	0.339
G25A A26G	0.306
G25A A26U	0.341
U24G A26U	0.718
U24G A26G	0.304
U24G A26C	0.373
U24G A42U	0.324
U24G A42C	0.343
U24G A42G	0.346
U24G G35U	0.907
U24G G35A	1.03
U24G G35C	0.839
A23U G27A	0.32
A23U G27C	0.308

Variant	self-cleavage
A23U G27U	0.279
U24G U28G	0.885
U24G U28A	0.912
U24G U28C	0.971
G25A A41G	0.337
G25A A41C	0.3
G25A A41U	0.275
U24G C38U	0.656
U24G C38A	0.742
U24G C38G	0.865
U24C A34G	0.901
U24C A34U	0.824
U24C A34C	0.746
U24G A44G	1.49
U24G A44C	0.617
U24G A44U	0.608
U24G G36A	0.862
U24G G36C	0.452
U24G G36U	0.803
U24G G45U	0.489
U24G G45A	0.541
U24G G45C	0.536
U24C A40U	0.281
U24C A40G	0.27

Variant	self-cleavage
U24C A40C	0.47
A23U U32G	0.41
A23U U32A	0.376
A23U U32C	0.311
U24C G35A	0.702
U24C G35U	0.655
U24C G35C	0.461
U24A A44U	0.712
U24A A44C	0.46
U24A A44G	1.68
U24C G36A	0.56
U24C G36C	0.383
U24C G36U	0.541
U24C C29G	0.605
U24C C29U	1.05
U24C C29A	0.416
A23U A37G	0.422
A23U A37C	0.381
A23U A37U	0.272
U24G G31C	1.19
U24G G31U	1.13
U24G G31A	0.992
G25A A42C	0.262
G25A A42U	0.333

Variant	self-cleavage
G25A A42G	0.242
G25A G45U	0.45
G25A G45A	0.336
G25A G45C	0.447
A23U G36U	0.314
A23U G36A	0.375
A23U G36C	0.327
G25A	0.377
G25C	0.324
U24G A34U	0.679
U24G A34C	0.823
U24G A34G	0.902
A23U A42C	0.331
A23U A42G	0.375
A23U A42U	0.337
A23U	0.425
U24A G39A	0.382
U24A G39U	0.464
U24A G39C	0.496
G25A G36C	0.302
G25A G36U	0.33
G25A G36A	0.32
A23U G25C	0.31
A23U G25A	0.267

Variant	self-cleavage
A23U G25U	0.315
U24A G27A	0.7
U24A G27C	0.685
U24A G27U	0.508
G25A A34U	0.357
G25A A34C	0.278
G25A A34G	0.3
A23U C43U	0.433
A23U C43G	0.356
A23U C43A	0.377
G25C A34C	0.29
A23U A41G	0.301
A23U A41U	0.307
A23U A41C	0.33
U24A G25A	0.243
U24A G25C	0.366
U24A G25U	0.282
U24C G39C	0.352
U24C G39U	0.333
U24C G39A	0.337
U24G A41C	0.322
U24G A41G	0.308
U24G A41U	0.323
U24A C29A	0.786

Variant	self-cleavage
U24A C29G	0.79
U24A C29U	0.883
G25A A40C	0.368
G25A A40U	0.356
G25A A40G	0.267
U24C A41G	0.358
U24C A41C	0.305
U24C A41U	0.408
U24C U32C	1.2
U24C U32G	0.802
U24C U32A	1.18
U24G C43U	0.463
U24G C43A	0.402
U24G C43G	0.337
G25C A26U	0.337
G25C A26C	0.355
G25C A26G	0.265
U24A A40C	0.421
U24A A40G	0.337
U24A A40U	0.359
U24A C30U	0.785
U24A C30G	1.04
U24A C30A	0.928
U24A C43G	0.374

Variant	self-cleavage
U24A C43U	0.518
U24A C43A	0.341
U24A A26C	0.602
U24A A26G	0.332
U24A A26U	0.756
U24G G27U	0.438
U24G G27C	0.692
U24G G27A	0.504
G25A G35A	0.315
G25A G35C	0.347
G25A G35U	0.35
U24C A44G	1.18
U24C A44U	0.542
U24C A44C	0.503
G25A G39A	0.335
G25A G39C	0.305
G25A G39U	0.351
U24A U28A	0.729
U24A U28G	0.694
U24A U28C	1.27
U24A C38G	0.645
U24A C38U	0.993
U24A C38A	0.696
